For the assay, the target named is HLA-A2 molecule. In words: HLA class I stabilization assay, RMA-S/A2 cells, peptide 10 µg/ml, flow cytometry with BB7.2. For orientation: In flow cytometry, cells or beads pass a laser one at a time.
IMQLMPFGCLL [T790M-8] yielded an HLA binding capability (%) (MFI increase) of 69.3%.

As for LIMQLMPFGCL [T790M-7], the HLA binding capability (%) (MFI increase) was found to be 31.2%.

For MQLMPFGCLL [T790M-5], the HLA binding capability (%) (MFI increase) was 267%.

Values taken from patent US20150218248A1.
